# Positions count from the first letter of the chain named.
# B1: CURA2 MAb 1.46 (antibody, IgG2, V domains shown)
# VH: QVQLVQSGAEVKKPGASVKVSCKASGYSFTSYDINWVRQATGQGLEWMGWMNPNNGNTGYAQKFQGRVTMTRNTSISTAYMELSSLRSEDTAVYYCARDIVVVVTATDYYYGMDVWGQGTTVTVSS
# VL: DIQMTQSPSSLSASVGDRVTITCRASQGIRNDLGWYQQKPGKAPKRLIFAASSLPSGVPSRFSGSGSGTEFTLTISSLQPEDFATYYCLQHSGYPPTFGQGTKVEIK
# B2: CURA2 MAb 1.51 (antibody, IgG2, V domains shown)
# VH: EVQLVQSGAEVKKPGESLKISCKGSGYSFTSYWIGWVRQMPGKGLEWMGIIYPGDSDAKYSPSFQGQVTISADKSISTAYLQWSSLKASDTAMYYCARHYDYVWRNYRYTGWFDPWGQGTLVTVSS
# VL: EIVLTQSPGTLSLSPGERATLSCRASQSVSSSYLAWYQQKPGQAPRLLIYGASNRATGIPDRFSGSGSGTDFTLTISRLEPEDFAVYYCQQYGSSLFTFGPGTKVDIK
# B3: CURA2 MAb 6.4 (antibody, IgG2, V domains shown)
# VH: QVQLVQSGAEVKKPGASVKVSCKASGYTFTSYDINWVRQATGQGLEWMGWINPNSGNTDYAQKFQGRVTMTRDTSISTAYMELSSLRSEDTAIYYCVRGFGYSYNYDYYYGMDVWGQGTTVTVSS
# VL: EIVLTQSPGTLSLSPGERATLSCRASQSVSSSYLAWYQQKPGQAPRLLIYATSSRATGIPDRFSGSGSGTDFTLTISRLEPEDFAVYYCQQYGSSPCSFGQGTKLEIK
# B4: CURA2 MAb 1.18 (antibody, IgG2, V domains shown)
# VH: QVQLVQSGAEVKKPGASVKVSCKASGYTFTSYDINWVRQATGQGLEWMGWMNPNSGNTGYAQKFQGRVTMTRNTSISTAYMELSSLRSEDTAVYYCAREGIAVAGTYYYYYGMDVWGQGTTVTVSS
# VL: B1 VL with F49Y, P55Q, Y87F, S92N, G93S, P96F, Q100P, E105D
# B5: CURA2 MAb 1.19 (antibody, IgG2, V domains shown)
# VH: QVQLVQSGAEVKKPGASVKVSCKASGYTFTSYDINWVRQATGQGLEWMGWMNPNSGNTGYAQKFQGRVTMTRNTSISTAYMELSSLRSEDTAVYYCARDVMITFGGVIVHYGMDVWGQGTTVTVSS
# VL: B1 VL with F49Y, P55Q, E70D, S92N, G93S, Y94D, P96C, T97S, V104L, K107R
# B6: CURA2 MAb 1.29 (antibody, IgG2, V domains shown)
# VH: EVQLVQSGAEVKKPGESLKISCKGSGYSFTSYWIGWVRQMPGKGLEWMGIIYPGDSDTRYSPSFQGQATISADKSISTAYLQWSSLKASDTAMYYCARHVDVGATIGGYYYYYHGMDVWGQGTTVTVSS
# VL: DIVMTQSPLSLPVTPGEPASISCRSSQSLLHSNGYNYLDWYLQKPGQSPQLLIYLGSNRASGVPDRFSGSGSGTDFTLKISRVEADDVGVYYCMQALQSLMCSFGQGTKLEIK
# B7: CURA2 MAb 1.45 (antibody, IgG2, V domains shown)
# VH: B3 VH with I51M, D59G, D73N, I93V, V97A, F100S, N105G
# VL: DIQMTQSPSSLSASVGDRVTINCRASQGISNDLAWYQQKPGKVPKLLIYAASTLQLGVPSRFSGSGSGTDFTLTISSLQPEDVATYYCQKYNSAPFTFGPGTKVDIK
# Target: p35 form of the 30664188.0.99 gene product (active fragment of PDGFD) (human, UniProt Q9GZP0 250-370)
# Test: cell-based or functional assay
row,Binder,"IC50 (ng/mL), BrdU incorporation assay on NIH 3T3 cells"
1,B1,500 ng/mL
2,B2,1000 ng/mL
3,B3,75 ng/mL
4,B4,> 1000 ng/mL
5,B5,75 ng/mL
6,B6,150 ng/mL
7,B7,750 ng/mL

# Reference: patent US20060293506A1 (Amgen, published 2006)
